Measured values taken from paper PMC5027513 (Nucleic Acids Research, 2016).

Tests used:
[1] = molecular target: T1, TnpA (IS608 transposase, Y1 HuH) (UniProt Q933Z0 1-155); assay: EMSA
T1 sequence: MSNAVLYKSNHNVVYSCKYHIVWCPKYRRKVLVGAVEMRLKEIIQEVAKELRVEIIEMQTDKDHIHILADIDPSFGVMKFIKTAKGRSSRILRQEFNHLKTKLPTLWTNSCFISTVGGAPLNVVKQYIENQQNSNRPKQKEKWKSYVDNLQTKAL

Ssb = Ssb (UniProt P0AGE0 1-178); assay: EMSA
[2] = molecular target: T1, TnpA (IS608 transposase, Y1 HuH); assay: competition
two-hybrid = molecular target: the molecule itself; assay: two-hybrid
[3] = molecular target: T1, TnpA (IS608 transposase, Y1 HuH); assay: EMSA; remark: listed apart in the source
[4] = molecular target: T1, TnpA (IS608 transposase, Y1 HuH); assay: EMSA; remark: listed apart in the source

Chain of Ssb (P0AGE0 whole entry): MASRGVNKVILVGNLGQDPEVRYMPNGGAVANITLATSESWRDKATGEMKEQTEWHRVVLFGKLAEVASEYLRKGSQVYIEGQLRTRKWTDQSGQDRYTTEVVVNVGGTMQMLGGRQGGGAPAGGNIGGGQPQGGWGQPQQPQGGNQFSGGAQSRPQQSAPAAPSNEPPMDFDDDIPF

B1: fork / flap (L73 + L76l + L77) (mixed)
DNA 1: GTGATGACCTGTCGCCTCTGCCCGAAGACTCTAGATCGATACAAGCTACGCCTCTCAGCTCCGATGATGACGCTC
DNA 2: GAGCGTCATCATCGGAGCTGAGAGGCGTAGCTTGTATCTAGGAAGCCGCTGTAGCTCTCGCAATCAGCAGCCTTGTGCCG
DNA 3: CGGCACAAGGCTGCTGATTGCGAGAGCTACAGCGGCTTCCTA
- binding result [1]: binds

B2: ss target 125 nt (S56) (ssDNA)
DNA: GTGATGTCCTGTCGCCTCTGCCCGAAGACTCTATTACGATTCAAGCTTCGCCTCTCAGCTCCGATGATGTCGCTCATGCCTGCAGCAATGGCAACAACGAACGGCAAACTATTAACTGGCGAACT
- binding result (Ssb): binds

B3: LE100 (structured_DNA)
DNA: CGGGCTGCAGGAATTCGATTTGCGCTAGTGCAAAAATTACCAAAACTAACGCCTTAAAGCCCCTAGCTTTTAGCTATGGGGATACAAGGCGAAACGCCTT
- binding result [2]: binds

B4: TnpAIS608, transposase of IS608, BACTH hybrid (T25-TnpAIS608 or TnpAIS608-T18) (enzyme, Helicobacter pylori (IS608), UniProt Q933Z0 1-155, looked up)
chain: MSNAVLYKSNHNVVYSCKYHIVWCPKYRRKVLVGAVEMRLKEIIQEVAKELRVEIIEMQTDKDHIHILADIDPSFGVMKFIKTAKGRSSRILRQEFNHLKTKLPTLWTNSCFISTVGGAPLNVVKQYIENQQNSNRPKQKEKWKSYVDNLQTKAL
- β-galactosidase activity, fold above negative control (two-hybrid): 5 fold

B5: ss60 (LE80 with 60-nt ss tail, S46) (structured_DNA)
DNA: CGCTAGTGCAAAAATTACCAAAACTAACGCCTTAAAGCCCCTAGCTTTTAGCTATGGGGATACAAGGCGAAACGCCTTCTGATGTCCTGTCGCCTCTGCCCGAAGACTCTAGATCGATTCAAGCTTCGCCTCTCAGCT
- binding result [3]: binds

B6: ds60 (S46 + S44) (mixed)
DNA 1: CGCTAGTGCAAAAATTACCAAAACTAACGCCTTAAAGCCCCTAGCTTTTAGCTATGGGGATACAAGGCGAAACGCCTTCTGATGTCCTGTCGCCTCTGCCCGAAGACTCTAGATCGATTCAAGCTTCGCCTCTCAGCT
DNA 2: AGCTGAGAGGCGAAGCTTGAATCGATCTAGAGTCTTCGGGCAGAGGCGACAGGACATCAG
- binding result [4]: binds
